Key:
PANC-1 = assay: Cell cycle analysis (PI stain); type: cell-based, Human; details: 24 h
Description: The cell lines were maintained in DMEM+10% FBS (heat inactivated) at 37° C. with 5% CO2, and 95% humidity. Antibiotics Penicillin (100 U/mL) and Streptomycin (100 μg/mL) were added to the medium.
The stock solution of recombinant lectin having the amino acid sequence of SEQ ID NO. […] Doxorubicin was used as positive control and stock solution was prepared in DMSO.
Cells were counted using hemocytometer and plated in culture plates at density of 0.5×10^6 cells/well in DMEM+10% FBS in 6-well plates. Cells were incubated overnight to allow the cell recovery and exponential growth. Following overnight incubation, cells were sera starved in DMEM+1% FBS for 4 h. […] Untreated cells were included as Control group for test item. Cells treated with Doxorubicin were included as Positive Control group. DMSO treated cells were included as control group for Doxorubicin. After treatment, cells were incubated for a time period of 24 h. Following incubation, the pro-apoptotic effect by cell cycle was determined as follows: Cell cycle reagent contains PI stain, which stains DNA of cells in different phases of cell cycle; Sub(G0/G1), G1, S, G2 and M. Cells in Sub(G0/G1) phase correspond to apoptotic cells.
Cells were gently harvested into pre-labeled centrifuge tubes and centrifuged at 450 g for 5 min, RT (low brake). The supernatants were removed carefully (not to touch the pellet) and discarded. 1 mL of 1×PBS was added to the pellet and resuspended gently to make homogenous suspension. Cells were centrifuged at 450 g for 5 min, RT (low brake) (washing step). The supernatant was carefully removed leaving behind approx 100 μL of PBS. Cells were resuspended gently yet thoroughly in residual PBS. Ice-cold 70% ethanol (300 μLI) was added drop-wise into cells in each tube while vortexing at low speed (fixation step). Cells were stored at 4° C. for 24 h prior to staining.
Ethanol fixed cells were centrifuged at 450 g for 5 min, RT (low brake). The supernatant was carefully removed (not to touch the pellet) and discarded. (The pellet might not be visible but makes a thin film on surface of tube). 1 mL of 1×PBS was added into pellet and resuspended gently. Cells were incubated for 1 min at RT. Cells were centrifuged at 450 g for 5 min, RT (low brake) (washing step). The supernatant was removed carefully leaving behind approx 20 μL-50 μL of PBS. 200 μL of Cell Cycle reagent was added into each tube.
Cells were resuspended gently, mixed and were incubated for 30 min, RT, Dark. The stained samples were transferred into 96-well plates and acquired on flow cytometer (Guava technologies). Percentage of cells in Sub (G0/G1) phase were determined. Fold increase in apoptotic cells (treated with Test Items) was determined as compared to Control (untreated cells).

[1] = system: PBMC (Peripheral blood mononuclear cells); assay: cell based in vitro cytotoxicity/anti-proliferation assay (summary); details: normal cells
Description: (§1) The percentage cytotoxicity was calculated using the statistical tool.

Glioblastoma (U251MG) = assay: cytotoxicity in Brain Tumor Cell lines by MTT assay; details: 72 h
U251MG cell line = assay: Mitochondrial membrane depolarization by JC-1 staining; type: cell-based, Human; details: 1 μg/mL-80 μg/mL
Description: (§2) The evaluation of pro-apoptotic effect of SEQ ID NO. 2 in brain tumor cell lines U251MG & IOMM Lee was conducted. The cells were treated with SEQ ID NO. 2 at various concentrations around IC50 values. Resultant effect on apoptosis was determined via externalization of Phosphatidyl Serine (PS) on cell membrane by Annexin-V staining, mitochondrial membrane depolarization by JC-1 staining and cell cycle distribution analysis by Propidium Iodide (PI) staining. Increase in apoptotic markers in U251MG & IOMM-Lee cell lines reflected the pro-apoptotic potential of SEQ ID NO. 2 in brain tumor. • Externalization of PS on cell membrane by Annexin-V staining on U251MG cell line: SEQ ID NO.

IOMM-Lee cell line = assay: as above; type: cell-based, Human; details: 1 μg/mL-80 μg/mL
Description: as §2

[2] = system: MCF-7 (Human breast adenocarcinoma); assay: MTT cytotoxicity assay; details: 48h
Description: All the cancer cell lines were procured from National Centre for Cell Science, Pune (India). Cell lines were maintained under conditions as mentioned in Table 23. The cell lines were sub-cultured by trypsinization followed by splitting the cell suspension into fresh flasks and supplementing with fresh culture medium.
All the cell lines were grown in specified media at 37° C. with 95% Humidity and 5% CO2.
The cells were trypsinized, counted by Trypan blue method in Neuebauer's Chamber and plated in wells of flat bottom 96-well plate at the density corresponding to 10×10^3 cells/well/200 μL medium.
Following overnight incubation, the media in the plate was replenished with 180 μL/well and then the cells were treated with 20 μL of each test item at concentrations ranging from 2.5 μg/mL-80 μg/mL in triplicates, so that the total volume in each well is 200 μL.
The untreated cells served as negative control. The cells were incubated with the test items or positive control for a time period of 48h. Following incubation, the cell cytotoxicity was estimated using MTT assay. Absorbance was measured at 540 nm. The percentage cytotoxicity corresponding to each treatment was calculated using the formula:
% Cytotoxicity=(1−X/R)*100
Where X=absorbance of wells corresponding to treated cells R=absorbance of untreated cells (cells maintained in growth medium only)
IC50 value was calculated using Graph-Pad Prism version 4.01 software.

Glioma (C6) = assay: cytotoxicity in Brain Tumor Cell lines by MTT assay; type: cell-based, Rat; details: 72 h
Description: The SEQ ID NO. […] Untreated cells were used as control. […] Cells were incubated for 3 h at 37° C.

KB = assay: cell based in vitro cytotoxicity/anti-proliferation assay (summary); design: species or system Human; details: Cervical
Description: as §1

B1: SEQ ID NO. 2: recombinant lectin; variant of the S. rolfsii lectin amino acid sequence (reported as Rec-2 in WO 2010/095143) (protein)
chain: TYKITVRVYQTNPDAFFHPVEKTVWKYANGGTWTITDDQHVLTMGGSGTSGTLRFHADNGESFTATFGVHNYKRWCDIVTNLAADETGMVINQQYYSQKNREEARERQLSNYQVKNAKGRNFQIVYTEAEGNDLHANLIIG
modifications: In vitro synthesis
% Population of cells, Apoptotic Sub(G0/G1) (PANC-1; 2.5 μg/mL): 1.60%
% Population of cells, G0/G1 (PANC-1; 2.5 μg/mL): 38.89%
% Population of cells, G2/M (PANC-1; 2.5 μg/mL): 24.83%
% Population of cells, S (PANC-1; 2.5 μg/mL): 9.89%
% Population of cells, Apoptotic Sub(G0/G1) (PANC-1; 5 μg/mL): 2.54%
% Population of cells, G0/G1 (PANC-1; 5 μg/mL): 40.09%
% Population of cells, G2/M (PANC-1; 5 μg/mL): 23.83%
% Population of cells, S (PANC-1; 5 μg/mL): 10.31%
Fold Increase (wrt Control) Apoptotic Sub(G0/G1) (PANC-1; 5 μg/mL): 1.4 fold
% Population of cells, Apoptotic Sub(G0/G1) (PANC-1; 10 μg/mL): 4.23%
% Population of cells, G0/G1 (PANC-1; 10 μg/mL): 44.43%
% Population of cells, G2/M (PANC-1; 10 μg/mL): 23.92%
% Population of cells, S (PANC-1; 10 μg/mL): 10.15%
Fold Increase (wrt Control) Apoptotic Sub(G0/G1) (PANC-1; 10 μg/mL): 2.4 fold
% Population of cells, Apoptotic Sub(G0/G1) (PANC-1; 20 μg/mL): 3.92%
% Population of cells, G0/G1 (PANC-1; 20 μg/mL): 44.24%
% Population of cells, G2/M (PANC-1; 20 μg/mL): 23.79%
% Population of cells, S (PANC-1; 20 μg/mL): 10.83%
Fold Increase (wrt Control) Apoptotic Sub(G0/G1) (PANC-1; 20 μg/mL): 2.2 fold
% Population of cells, Apoptotic Sub(G0/G1) (PANC-1; 80 μg/mL): 6.21%
% Population of cells, G0/G1 (PANC-1; 80 μg/mL): 39.63%
% Population of cells, G2/M (PANC-1; 80 μg/mL): 27.41%
% Population of cells, S (PANC-1; 80 μg/mL): 9.58%
Fold Increase (wrt Control) Apoptotic Sub(G0/G1) (PANC-1; 80 μg/mL): 3.5 fold
% Cytotoxicity (MCF-7): 28.0%
% Cytotoxicity ([1]; listed as SEQ ID NO 2): Nil
% Cytotoxicity ([1]; listed as SEQ ID No 2): did not show cytotoxic effect
IC50 Value (Glioblastoma (U251MG)): 11.05 µg/mL
increase in mitochondrial membrane depolarization as compared to Control (Untreated) (U251MG cell line): 36.8%-60.9%
increase in mitochondrial membrane depolarization as compared to Control (Untreated) (IOMM-Lee cell line): 16.1%-36.4%
IC50 [2]: >80 µg/mL
% of cytotoxicity (Glioma (C6); 2.5 μg/mL-100 μg/mL): 18.8-48.3%
IC50 Value (Glioma (C6)): >100 µg/mL
% Cytotoxicity (HT-29): 54.9%
% Cytotoxicity (KB): 64.0%
